Measurements reported in article PMC3229523, “Identification of Lactoferricin B Intracellular Targets Using an Escherichia coli Proteome Chip” (PLoS ONE, 2011).
Ends that are not written are not given here. * marks the point of attachment. Biotin = O=C1N[C@H]2[C@H](CS[C@H]2CCCCC(=O)*)N1

Legend:
Experiment in all cases: peptide or protein array; E. coli proteome chip: purified His-tagged proteins printed in duplicate on Fullmoon slides, blocked with 1% BSA; 10 nM N-terminal biotinylated LfcinB with 1% BSA, room temperature, 1 h; detected with DyLight 649-labeled streptavidin, ratio to DyLight 549-labeled anti-His antibody; ProCAT normalisation, local cut-off; triplicate chips
Details in all cases: both partners purified
[1] = target: T1, adenylate cyclase CyaA (E. coli K-12, UniProt P00936 1-848)
T1 construct: CyaA, adenylate cyclase, E. coli K-12
T1 sequence (looked up): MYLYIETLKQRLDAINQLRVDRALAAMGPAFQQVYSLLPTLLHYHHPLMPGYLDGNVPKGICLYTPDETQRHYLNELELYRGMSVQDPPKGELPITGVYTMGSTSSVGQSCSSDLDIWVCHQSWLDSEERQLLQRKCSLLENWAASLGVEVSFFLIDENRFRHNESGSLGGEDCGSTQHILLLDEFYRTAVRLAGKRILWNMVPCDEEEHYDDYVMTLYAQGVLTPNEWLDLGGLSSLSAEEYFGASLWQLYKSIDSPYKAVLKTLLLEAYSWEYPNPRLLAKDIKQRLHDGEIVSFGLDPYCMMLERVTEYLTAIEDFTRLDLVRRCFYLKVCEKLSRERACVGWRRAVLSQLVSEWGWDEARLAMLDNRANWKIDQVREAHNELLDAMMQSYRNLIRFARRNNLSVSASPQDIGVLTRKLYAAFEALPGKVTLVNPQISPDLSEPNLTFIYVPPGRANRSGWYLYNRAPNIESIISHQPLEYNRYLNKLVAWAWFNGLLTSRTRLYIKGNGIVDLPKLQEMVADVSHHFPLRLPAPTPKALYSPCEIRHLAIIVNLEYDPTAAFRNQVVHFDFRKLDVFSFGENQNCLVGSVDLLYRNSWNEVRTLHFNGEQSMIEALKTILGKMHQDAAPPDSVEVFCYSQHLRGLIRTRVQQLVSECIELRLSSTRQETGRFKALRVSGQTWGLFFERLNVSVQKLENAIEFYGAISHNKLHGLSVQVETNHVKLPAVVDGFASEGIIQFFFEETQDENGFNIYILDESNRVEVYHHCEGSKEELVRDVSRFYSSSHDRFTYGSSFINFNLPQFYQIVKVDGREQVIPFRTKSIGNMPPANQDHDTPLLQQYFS

[2] = target: T2, AceK (E. coli K-12, UniProt P11071 1-578)
T2 construct: AceK, E. coli K-12
T2 sequence (looked up): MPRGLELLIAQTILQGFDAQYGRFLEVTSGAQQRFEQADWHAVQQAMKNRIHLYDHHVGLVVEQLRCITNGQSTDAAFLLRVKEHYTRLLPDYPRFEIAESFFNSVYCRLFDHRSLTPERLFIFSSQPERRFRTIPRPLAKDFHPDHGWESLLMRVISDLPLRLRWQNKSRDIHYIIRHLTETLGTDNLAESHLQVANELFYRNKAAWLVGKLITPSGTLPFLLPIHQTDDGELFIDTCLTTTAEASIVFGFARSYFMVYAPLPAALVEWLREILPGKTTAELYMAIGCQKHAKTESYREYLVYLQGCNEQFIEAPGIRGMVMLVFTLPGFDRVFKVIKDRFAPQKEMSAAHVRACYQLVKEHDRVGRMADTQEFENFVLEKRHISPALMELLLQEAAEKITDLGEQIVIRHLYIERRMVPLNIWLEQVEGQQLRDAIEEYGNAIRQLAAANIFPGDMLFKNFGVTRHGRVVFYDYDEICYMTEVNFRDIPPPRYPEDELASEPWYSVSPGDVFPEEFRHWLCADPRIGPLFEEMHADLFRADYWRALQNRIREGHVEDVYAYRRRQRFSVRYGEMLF

[3] = target: T3, YbaO (E. coli K-12, UniProt P0ACJ5 1-152)
T3 construct: YbaO, E. coli K-12
T3 sequence (looked up): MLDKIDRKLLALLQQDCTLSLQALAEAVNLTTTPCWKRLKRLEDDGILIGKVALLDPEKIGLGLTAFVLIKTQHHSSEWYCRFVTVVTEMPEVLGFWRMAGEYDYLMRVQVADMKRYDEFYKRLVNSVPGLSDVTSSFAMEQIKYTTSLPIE

Measured: binding result

B1: N-terminal biotinylated Lactoferricin B (peptide, UniProt P24627 36-60, looked up)
peptide: Biotin-FKCRRWQWRMKKLGAPSITCVRRAF
modifications: ends and bridges not checked
notes: lactoferricin B (LfcinB), cationic antimicrobial peptide of 25 amino acids; also called biotinylated LfcinB; biotin-labeled LfcinB; source: bought: Kelowna Inc
binds: all assays above
